Laboratory results taken from article PMC3348966 (Proteins, 2012).
Read-outs that look alike come from different tables or passages of the source.

Experiments:
XloA = XloA (Thermotoga maritima, UniProt Q9WXT1); experiment: p-nitrophenol release at […] nm; assay type: biochemical; conditions: data not shown; auxiliary enzyme
purified protein [1] = substrate: CC(=O)O[C@@H]1CO[C@@H](Oc2ccc([N+](=O)[O-])cc2)[C@H](O)[C@H]1O; experiment: purified protein; assay type: biochemical, Thermotoga maritima; conditions: 0.1 M sodium phosphate pH 7, 60 °C, excess XloA
purified protein [2] = substrate: CC(=O)O[C@@H]1[C@@H](O)[C@H](Oc2ccc([N+](=O)[O-])cc2)OC[C@H]1O; experiment: purified protein; assay type: biochemical, Thermotoga maritima; conditions: 0.1 M sodium phosphate pH 7, 60 °C, excess XloA
purified protein [3] = substrate: CC(=O)O[C@H]1[C@H](Oc2ccc([N+](=O)[O-])cc2)OC[C@@H](O)[C@@H]1O; experiment: purified protein; assay type: biochemical, Thermotoga maritima; conditions: 0.1 M sodium phosphate pH 7, 60 °C, excess XloA
purified protein [4] = substrate: CC(=O)Oc1ccc([N+](=O)[O-])cc1; experiment: purified protein; assay type: biochemical, Thermotoga maritima; conditions: 50 mM citrate-phosphate pH 6, 70 °C (standard assay)
purified protein [5] = substrate: CCC(=O)Oc1ccc([N+](=O)[O-])cc1; experiment: purified protein; assay type: biochemical, Thermotoga maritima; conditions: 50 mM citrate-phosphate pH 6, 70 °C (standard assay)
crystal structure [6] = target: the molecule itself; experiment: crystal structure
crystal structure [7] = target: the molecule itself; experiment: crystal structure; remark: listed apart in the source

With O=[N+]([O-])c1ccc(O[C@@H]2OC[C@@H](O)[C@H](O)[C@H]2O)cc1 [4-nitrophenyl β-D-xylopyranoside] as the molecule, how does the “p-nitrophenol release at 405 nm” value (XloA) read?
The value was “its activity was confirmed by measuring release of p-nitrophenol from the substrate pNP-Xyl”.

B1: TM0077 (Thermotoga maritima MSB8) (protein)
chain: MAFFDLPLEELKKYRPERYEEKDFDEFWEETLAESEKFPLDPVFERMESHLKTVEAYDVTFSGYRGQRIKGWLLVPKLEEEKLPCVVQYIGYNGGRGFPHDWLFWPSMGYICFVMDTRGQGSGWLKGDTPDYPEGPVDPQYPGFMTRGILDPRTYYYRRVFTDAVRAVEAAASFPQVDQERIVIAGGSQGGGIALAVSALSKKAKALLCDVPFLCHFRRAVQLVDTHPYAEITNFLKTHRDKEEIVFRTLSYFDGVNFAARAKIPALFSVGLMDNICPPSTVFAAYNYYAGPKEIRIYPYNNHEGGGSFQAVEQVKFLKKLFEKG
For B1, which Km (purified protein [1]) is on record?
Its Km is 4.0 ± 0.1 mM.

What about the kcat (purified protein [1]) of the same molecule?
Its kcat is 78.6 ± 12.9 s⁻¹.

And the kcat/Km (purified protein [1])?
The kcat/Km was 19700 ± 3300 M⁻¹ s⁻¹.

What about the Km (purified protein [2]) of the same molecule?
The Km was 4.2 ± 0.4 mM.

What about the kcat (purified protein [2]) of the same molecule?
Its kcat is 70.1 ± 7.7 s⁻¹.

And the kcat/Km (purified protein [2])?
The kcat/Km was 16700 ± 2400 M⁻¹ s⁻¹.

And the Km (purified protein [3])?
The Km was 3.6 ± 0.5 mM.

And the kcat (purified protein [3])?
The kcat was 76.1 ± 19.2 s⁻¹.

And the kcat/Km (purified protein [3])?
Its kcat/Km is 21100 ± 6100 M⁻¹ s⁻¹.

What about the Km (purified protein [4]) of the same molecule?
Its Km is 0.185 ± 0.026 mM.

What about the kcat (purified protein [4]) of the same molecule?
The kcat was 57.5 ± 2.2 s⁻¹.

What about the kcat/Km (purified protein [4]) of the same molecule?
The kcat/Km was 311000 ± 45300 M⁻¹ s⁻¹.

And the Km (purified protein [5])?
Its Km is 0.137 ± 0.013 mM.

What about the kcat (purified protein [5]) of the same molecule?
Its kcat is 41.3 ± 1.1 s⁻¹.

And the kcat/Km (purified protein [5])?
Its kcat/Km is 302000 ± 29700 M⁻¹ s⁻¹.

B2: TM0077-PMSF complex (TM0077 with PMS-modified Ser188) (enzyme, Thermotoga maritima, UniProt Q9WXT2 1-325, looked up)
chain: B1 chain
modifications: phenylmethyl sulfonyl (PMS) moiety covalently bound to the Oγ atom of Ser188
Which “stoichiometry N” value (crystal structure [6]) does the source give for B2 here?
The value was 6.

B3: native TM0077 (acetyl esterase from Thermotoga maritima) (enzyme, UniProt Q9WXT2 1-325, looked up)
chain: B1 chain
How did the “stoichiometry N” value (crystal structure [6]) turn out when B3 was run?
The value was 6.

B4: selenomethionine-substituted TM0077 (acetyl esterase from Thermotoga maritima) (enzyme, UniProt Q9WXT2 1-325, looked up)
chain: B1 chain
modifications: selenomethionine-substituted (selenomethionine in place of methionine)
B4 was tested. Which “stoichiometry N” value (crystal structure [7]) did it give?
The value was 6.

B5: TM0077-paraoxon complex (TM0077 with DEP-modified Ser188) (enzyme, Thermotoga maritima, UniProt Q9WXT2 1-325, looked up)
chain: B1 chain
modifications: diethyl-phosphate (DEP) moiety covalently bound to the Oγ atom of Ser188
How did the “stoichiometry N” value (crystal structure [6]) turn out when B5 was run?
The value was 6.
